In article PMC12455665, “Convergent construction of N-terminally modified CCL5 chemokines for photoaffinity receptor pull-down using cross-aldol bioconjugations” (RSC Chemical Biology, 2025):

Molecular target: T1, CCR5 chemokine receptor on CHO-CCR5 cells (UniProt P51681 1-352)
T1 construct: also called the receptor; source: Chinese hamster ovary cell line (CHO), stably expressing CCR5
Assay: not stated; receptor binding of CCL5 P2G against wild-type CCL5 (Fig. S14); methods in the SI, not shown

T1 sequence (P51681 whole entry): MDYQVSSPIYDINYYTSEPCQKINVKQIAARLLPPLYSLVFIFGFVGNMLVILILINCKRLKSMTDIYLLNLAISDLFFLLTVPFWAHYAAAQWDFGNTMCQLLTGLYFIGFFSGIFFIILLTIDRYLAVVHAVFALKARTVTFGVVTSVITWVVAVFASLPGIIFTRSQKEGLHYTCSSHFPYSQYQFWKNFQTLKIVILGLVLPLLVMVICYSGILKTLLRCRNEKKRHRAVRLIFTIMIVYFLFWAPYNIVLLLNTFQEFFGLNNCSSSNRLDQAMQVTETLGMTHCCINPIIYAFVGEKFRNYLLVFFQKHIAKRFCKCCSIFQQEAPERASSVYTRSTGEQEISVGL

fold reduction of binding against wild-type CCL5: 3 fold
B1: CCL5 P2G 1 (ligand, human, UniProt P13501 24-91, looked up)
chain: SGYSSDTTPCCFAYIARPLPRAHIKEYFYTSGKCSNPAVVFVTRKNRQVCANPEKKWVREYINSLEMS
notes: Human C–C chemokine ligand 5 (CCL5, RANTES), with its native N-terminal serine after traceless SUMO cleavage, point mutant P2G; also called CCL5 point mutant (P2G); CCL5 P2G variant; source: E. coli SHuffle LysY, purified (His-SUMO tag capture, SUMO protease cleavage); not shown: His, N-terminal, cleaved; SUMO, N-terminal, cleaved
